Publication PMC12677587, “UHRF1 Controls the Timing of RAD51 Removal During DNA Damage Repair Through Suppressing RFWD3” (Advanced Science, 2025)
One block for each molecule: values may come before it.

Experiments:
RAD51 = RAD51 (UniProt Q06609); assay: co-IP of FLAG-UHRF1 and RAD51-HA; conditions: reference: wild type; sites S661
His-UHRF1 [1] = molecular target: T1, His-UHRF1 (UniProt Q96T88-1 1-793); assay: pull-down; GST pull-down: purified GST-RFWD3 on Glutathione resin, purified His-tagged UHRF1 proteins, 3 h at 4 °C in BCA buffer (20 mM Tris-HCl pH 7.4, 100 mM NaCl); washes with 300 mM NaCl; western blotting; conditions: both partners purified
T1 construct: UHRF1; last residue R793; source: E. coli BL21(DE3), purified (Ni-NTA agarose)
T1 sequence (looked up): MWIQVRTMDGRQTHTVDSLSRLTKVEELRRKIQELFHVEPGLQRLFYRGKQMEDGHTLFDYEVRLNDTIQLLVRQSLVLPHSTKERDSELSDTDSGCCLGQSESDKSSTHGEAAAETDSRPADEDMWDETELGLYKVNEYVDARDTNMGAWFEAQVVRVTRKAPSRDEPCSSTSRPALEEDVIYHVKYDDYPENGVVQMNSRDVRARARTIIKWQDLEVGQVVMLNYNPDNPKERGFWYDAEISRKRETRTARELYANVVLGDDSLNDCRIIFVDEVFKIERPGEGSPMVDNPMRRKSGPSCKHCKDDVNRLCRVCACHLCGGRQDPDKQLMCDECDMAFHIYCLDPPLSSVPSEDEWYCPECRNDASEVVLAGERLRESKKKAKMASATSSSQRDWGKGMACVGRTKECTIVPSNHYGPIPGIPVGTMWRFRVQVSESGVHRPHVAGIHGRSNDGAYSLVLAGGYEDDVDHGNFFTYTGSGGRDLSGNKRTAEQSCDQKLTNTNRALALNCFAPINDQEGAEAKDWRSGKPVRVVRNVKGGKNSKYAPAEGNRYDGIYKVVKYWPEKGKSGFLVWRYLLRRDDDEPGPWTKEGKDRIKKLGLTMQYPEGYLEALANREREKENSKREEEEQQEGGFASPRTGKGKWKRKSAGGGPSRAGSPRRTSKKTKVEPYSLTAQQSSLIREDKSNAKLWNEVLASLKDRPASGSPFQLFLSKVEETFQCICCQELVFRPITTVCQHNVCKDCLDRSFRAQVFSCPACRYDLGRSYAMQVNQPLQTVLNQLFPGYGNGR

His-UHRF1 [2] = molecular target: T1, His-UHRF1; assay: pull-down; GST pull-down: GST-RFWD3 on Glutathione resin precipitating His-UHRF1 with His-RAD51 or His-RAD51^R254Q added; His-tagged proteins detected by western blotting; conditions: both partners purified
GST-UHRF1 = molecular target: T2, GST-UHRF1 (UniProt Q96T88-1 1-793); assay: pull-down; His pull-down: purified His-RAD51 on Ni-chelated beads, GST-UHRF1 with increasing amounts of GST-RFWD3; Binding Buffer A (50 mM Tris-HCl pH 7.5-8.0, 50 mM NaCl), washes with 20 mM imidazole; western blotting; conditions: both partners purified
T2 construct: UHRF1; source: E. coli BL21(DE3), purified (Glutathione resin)
T2 sequence (looked up): T1 sequence (looked up)

binding against the reference (RAD51): stronger
Molecule: UHRF1 (from UniProt Q96T88) S661A

binding result (His-UHRF1 [1]): binds
B1: GST-RFWD3 (natural protein, UniProt Q6PCD5 1-774, looked up)
chain: MAHEAMEYDVQVQLNHAEQQPAPAGMASSQGGPALLQPVPADVVSSQGVPSILQPAPAEVISSQATPPLLQPAPQLSVDLTEVEVLGEDTVENINPRTSEQHRQGSDGNHTIPASSLHSMTNFISGLQRLHGMLEFLRPSSSNHSVGPMRTRRRVSASRRARAGGSQRTDSARLRAPLDAYFQVSRTQPDLPATTYDSETRNPVSEELQVSSSSDSDSDSSAEYGGVVDQAEESGAVILEEQLAGVSAEQEVTCIDGGKTLPKQPSPQKSEPLLPSASMDEEEGDTCTICLEQWTNAGDHRLSALRCGHLFGYRCISTWLKGQVRKCPQCNKKARHSDIVVLYARTLRALDTSEQERMKSSLLKEQMLRKQAELESAQCRLQLQVLTDKCTRLQRRVQDLQKLTSHQSQNLQQPRGSQAWVLSCSPSSQGQHKHKYHFQKTFTVSQAGNCRIMAYCDALSCLVISQPSPQASFLPGFGVKMLSTANMKSSQYIPMHGKQIRGLAFSSYLRGLLLSASLDNTIKLTSLETNTVVQTYNAGRPVWSCCWCLDEANYIYAGLANGSILVYDVRNTSSHVQELVAQKARCPLVSLSYMPRAASAAFPYGGVLAGTLEDASFWEQKMDFSHWPHVLPLEPGGCIDFQTENSSRHCLVTYRPDKNHTTIRSVLMEMSYRLDDTGNPICSCQPVHTFFGGPTCKLLTKNAIFQSPENDGNILVCTGDEAANSALLWDAASGSLLQDLQTDQPVLDICPFEVNRNSYLATLTEKMVHIYKWE
notes: RFWD3 (ring finger and WD repeat domain 3); source: E. coli BL21(DE3), purified (Glutathione resin)

binding result (His-UHRF1 [2]): binds
binding result (GST-UHRF1): binds
B2: His-RAD51 (natural protein, UniProt Q06609 1-339, looked up)
chain: MAMQMQLEANADTSVEEESFGPQPISRLEQCGINANDVKKLEEAGFHTVEAVAYAPKKELINIKGISEAKADKILAEAAKLVPMGFTTATEFHQRRSEIIQITTGSKELDKLLQGGIETGSITEMFGEFRTGKTQICHTLAVTCQLPIDRGGGEGKAMYIDTEGTFRPERLLAVAERYGLSGSDVLDNVAYARAFNTDHQTQLLYQASAMMVESRYALLIVDSATALYRTDYSGRGELSARQMHLARFLRMLLRLADEFGVAVVITNQVVAQVDGAAMFAADPKKPIGGNIIAHASTTRLYLRKGRGETRICKIYDSPCLPEAEAMFAINADGVGDAKD
notes: RAD51 recombinase; also called purified RAD51; source: E. coli BL21(DE3), purified (Ni-NTA agarose)
